Experimental data from IntAct's records for PubMed 23178593.

B1: Aprataxin and PNK-like factor (Homo sapiens), Q8IW19 (parent)
chain: MSGGFELQPRDGGPRVALAPGETVIGRGPLLGITDKRVSRRHAILEVAGGQLRIKPIHTNPCFYQSSEKSQLLPLKPNLWCYLNPGDSFSLLVDKYIFRILSIPSEVEMQCTLRNSQVLDEDNILNETPKSPVINLPHETTGASQLEGSTEIAKTQMTPTNSVSFLGENRDCNKQQPILAERKRILPTWMLAEHLSDQNLSVPAISGGNVIQGSGKEEICKDKSQLNTTQQGRRQLISSGSSENTSAEQDTGEECKNTDQEESTISSKEMPQSFSAITLSNTEMNNIKTNAQRNKLPIEELGKVSKHKIATKRTPHKEDEAMSCSENCSSAQGDSLQDESQGSHSESSSNPSNPETLHAKATDSVLQGSEGNKVKRTSCMYGANCYRKNPVHFQHFSHPGDSDYGGVQIVGQDETDDRPECPYGPSCYRKNPQHKIEYRHNTLPVRNVLDEDNDNVGQPNEYDLNDSFLDDEEEDYEPTDEDSDWEPGKEDEEKEDVEELLKEAKRFMKRK

Variants of: B1
Conditions: with xrcc5_human XRCC5, P13010
xrcc5_human XRCC5, P13010, sequence (P13010 whole entry): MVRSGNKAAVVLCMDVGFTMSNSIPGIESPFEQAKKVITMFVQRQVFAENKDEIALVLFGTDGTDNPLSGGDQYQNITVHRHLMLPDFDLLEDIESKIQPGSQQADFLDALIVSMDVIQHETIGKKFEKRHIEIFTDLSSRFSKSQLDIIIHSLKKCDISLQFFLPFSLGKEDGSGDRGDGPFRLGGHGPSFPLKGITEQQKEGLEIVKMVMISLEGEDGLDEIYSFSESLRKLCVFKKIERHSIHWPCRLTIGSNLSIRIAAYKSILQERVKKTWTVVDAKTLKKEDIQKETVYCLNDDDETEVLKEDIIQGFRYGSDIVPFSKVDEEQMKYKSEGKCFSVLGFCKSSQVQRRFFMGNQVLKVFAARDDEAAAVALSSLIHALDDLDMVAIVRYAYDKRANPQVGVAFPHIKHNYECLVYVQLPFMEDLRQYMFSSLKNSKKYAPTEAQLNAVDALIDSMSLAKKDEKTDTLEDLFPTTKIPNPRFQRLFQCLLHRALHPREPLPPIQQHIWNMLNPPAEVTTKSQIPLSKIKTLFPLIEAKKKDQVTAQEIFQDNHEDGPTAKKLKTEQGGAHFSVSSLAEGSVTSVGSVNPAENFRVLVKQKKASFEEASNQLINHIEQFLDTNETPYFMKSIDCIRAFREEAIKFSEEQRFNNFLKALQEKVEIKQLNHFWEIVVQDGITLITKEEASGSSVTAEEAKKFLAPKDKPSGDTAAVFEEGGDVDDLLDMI

| Variant | effect of a mutation on the interaction |
| --- | --- |
| MSGGFELQPRDGGPRVALAPGETVIGRGPLLGITDKRVSRRHAILEVAGGQLRIKPIHTNPCFYQSSEKSQLLPLKPNLWCYLNPGDSFSLLVDKYIFRILSIPSEVEMQCTLRNSQVLDEDNILNETPKSPVINLPHETTGASQLEGSTEIAKTQMTPTNSVSFLGENRDCNKQQPILAERKRILPTGMLAEHLSDQNLSVPAISGGNVIQGSGKEEICKDKSQLNTTQQGRRQLISSGSSENTSAEQDTGEECKNTDQEESTISSKEMPQSFSAITLSNTEMNNIKTNAQRNKLPIEELGKVSKHKIATKRTPHKEDEAMSCSENCSSAQGDSLQDESQGSHSESSSNPSNPETLHAKATDSVLQGSEGNKVKRTSCMYGANCYRKNPVHFQHFSHPGDSDYGGVQIVGQDETDDRPECPYGPSCYRKNPQHKIEYRHNTLPVRNVLDEDNDNVGQPNEYDLNDSFLDDEEEDYEPTDEDSDWEPGKEDEEKEDVEELLKEAKRFMKRK [W189G] | disrupting interaction |
